Test results from patent publication EP1260521B1.

Assays:
[1] = target: membrane IgE on U266 B1 cells (human) (UniProt P01854); assay: FACS on U266 B1 cells
[2] = target: FCEH-bound IgE (human IgE loaded on FcERI alpha) (human) (UniProt P01854); assay: cell-based or functional assay
human IgE (human) = human IgE (human) (UniProt P01854); assay: 50% inhibition assay of IgE binding to FCEH

Binder | EC50 [1] [mg/L] | PBL Histamine Release (EC50) [2] [mg/L] | IC50 (human IgE (human)) [mg/L] | Var. X / IgL1H1 (human IgE (human)) | Var. X / MaE11 (human IgE (human))
MaE 13 (antibody, from another filing, mouse IgG1, V domains shown) VH: DVQLQESGPGLVKPSQSLSLTCTVTGYTITSDNAWNWIRQFPGNKLEWMGYINHSGTTSYNPSLKSRISITRDTSKNQFFLQLNSVTTEDTATYYCAWVVAYAMDYWGQGTSVTVSS VL: DIVMTQSQKFMSTSVGDRVSVTCKASQNVSSNVAWYQQKPGQSPKALIYSASYRYSGVPDRFTGSGSGTDFTLTISNVQSEDLAEYFCQQYYTYPLYTFGGGTKLEIKR | 1 | > 10 |  |  | 
MaE 11 (antibody, from another filing, mouse IgG1, V domains shown) VH: DVQLQESGPGLVKPSQSLSLACSVTGYSITSGYSWNWIRQFPGNKLEWMGSITYDGSSNYNPSLKNRISVTRDTSQNQFFLKLNSATAEDTATYYCARGSHYFGHWHFAVWGAGTTVTVSS VL: DIVLTQSPASLAVSLGQRATISCKASQSVDYDGDSYMNWYQQKPGQPPILLIYAASYLGSEIPARFSGSGSGTDFTLNIHPVEEEDAATFYCQQSHEDPYTFGAGTKLEIK | 0.15 | > 100 | 0.449 | 0.06 | 1
MaE 15 (antibody, from another filing, mouse IgG1, V domains shown) VH: DVQHQESEPDLVKPSQSLSLTCTVTGYSITSGYNRHWIRQFPGNKLEWMGYIHYSGSTNYNPSLKRRISITRDTSKNQFFLQLNSVTTEDTATYYCARGSIYYYGSRYRYFDVWGAGTTVTVSS VL: DIQLTQSPASLAVSLGQRATISCKASQSVDYDGDSYMNWYQQKPGQPPKLLIYAASNLESGIPARFSGSGSGTDFTLNIHPVEEEDAATYYCQQSNEDPFTFGAGT | 6 | > 100 |  |  | 
